# According to US20190062442A1 (AstraZeneca / MedImmune, published 2019):
# Tests used:
# [1] = biological target: T1, FLAG-tagged human PrP^c_N1 (recombinant N-terminal fragment of cellular prion protein, 23-111 amino-acids) (human, UniProt P04156 23-111)
# T1 sequence: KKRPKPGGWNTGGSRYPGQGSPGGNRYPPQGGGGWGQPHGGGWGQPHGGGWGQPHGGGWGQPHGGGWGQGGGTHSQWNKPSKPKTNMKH
# [2] = biological target: T2, Human PrP^c_N1_Flag His protein (human, UniProt P04156 23-111)
# T2 sequence: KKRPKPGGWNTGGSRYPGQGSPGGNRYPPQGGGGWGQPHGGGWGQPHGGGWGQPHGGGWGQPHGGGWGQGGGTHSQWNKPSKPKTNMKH
# [3] = biological target: T3, FLAG-tagged Cynomolgus PrP^c_N1 (cynomolgus monkey, UniProt P67992 23-111); test: direct HTRF binding assay
# T3 sequence: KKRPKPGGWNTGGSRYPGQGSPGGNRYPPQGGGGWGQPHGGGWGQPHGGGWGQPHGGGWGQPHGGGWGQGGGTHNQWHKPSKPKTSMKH
# [4] = biological target: full length cynomolgus PrP^c present on the cynomolgus CynoMK-1 cell line (cynomolgus monkey, UniProt P67992 23-230); test: flow cytometry, antibody at 5 µg/ml
binder,measurement,setting,value
"PrP^c-O0059 Hu IgG1 (antibody, V domains shown) VH: not shown VL: QSVLTQPPSASGTPGQRVTISCSGERSDIGINYVSWYQQLPGTAPKLLIYTDDRRPPGVPDRFSASKSGTSASLAISGLRSEDEADYYCEAWHDVLGHPVFGGGTKLTVL",IC50,[1],0.225 nM
same,Kd,[2],0.0235 nM
same,koff,[2],1.33e-05 s⁻¹
same,kon,[2],564000 M⁻¹ s⁻¹
same,binding result,[3],binds
same,binding result,[4],binds
